Laboratory results from PMC4402530, “Unwinding forward and sliding back: an intermittent unwinding mode of the BLM helicase”.

Columns and labels:
Assay in all cases: fluorescence anisotropy; 1 mM MgCl2, no ATP listed; 25 mM Tris-HCl pH 7.5 (last digit split in text), 100 mM NaCl, 1 mM MgCl2, 3 mM DTT, 5 nM DNA, 25 C, 5 min equilibration; Hill fit
Conditions in all cases: protein: recombinant
BLM642-1290 T1110G = BLM642-1290 T1110G (human, UniProt P54132 642-1290, T1110G)
BLM642-1290 S1121A = BLM642-1290 S1121A (human, UniProt P54132 642-1290, S1121A)
BLM642-1290 S1121A, sequence (P54132 642-1290 S1121A): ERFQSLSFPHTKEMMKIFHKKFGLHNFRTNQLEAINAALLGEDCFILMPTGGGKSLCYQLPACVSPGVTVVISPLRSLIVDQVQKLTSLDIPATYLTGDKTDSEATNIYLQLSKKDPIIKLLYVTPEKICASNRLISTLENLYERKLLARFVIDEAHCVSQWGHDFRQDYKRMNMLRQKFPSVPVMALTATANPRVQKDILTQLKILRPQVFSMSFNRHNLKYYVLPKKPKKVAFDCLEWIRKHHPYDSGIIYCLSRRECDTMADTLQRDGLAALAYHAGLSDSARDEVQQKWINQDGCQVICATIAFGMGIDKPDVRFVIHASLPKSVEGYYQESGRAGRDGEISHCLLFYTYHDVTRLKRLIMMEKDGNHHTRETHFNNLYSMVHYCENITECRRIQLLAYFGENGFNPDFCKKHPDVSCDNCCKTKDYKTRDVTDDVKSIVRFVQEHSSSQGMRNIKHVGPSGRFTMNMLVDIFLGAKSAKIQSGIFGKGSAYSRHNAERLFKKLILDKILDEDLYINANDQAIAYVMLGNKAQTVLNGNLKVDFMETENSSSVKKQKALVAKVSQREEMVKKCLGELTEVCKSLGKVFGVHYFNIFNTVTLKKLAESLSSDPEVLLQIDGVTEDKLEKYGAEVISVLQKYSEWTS

BLM642-1290 K1125A = BLM642-1290 K1125A (human, UniProt P54132 642-1290, K1125A)
BLM642-1290 K1125A, sequence (P54132 642-1290 K1125A): as the sequence (P54132 642-1290 S1121A) above, with A480S, K484A counted along it

[1] = target: BLM642-1290 helicase core, wild type (human, UniProt P54132 642-1290)
BLM642-1290 helicase core, wild type, sequence (P54132 642-1290): as the sequence (P54132 642-1290 S1121A) above, with A480S counted along it

[2] = label: 3' fluorescein on F18, blunt

BLM642-1290 T1110G, sequence (P54132 642-1290 T1110G): as the sequence (P54132 642-1290 S1121A) above, with T469G, A480S counted along it

Binder	Kd (BLM642-1290 T1110G; label: 3' fluorescein)	Kd (BLM642-1290 S1121A; label: 3' fluorescein)	Kd (BLM642-1290 K1125A; label: 3' fluorescein)	Kd ([1]; label: 3' fluorescein)	Kd (BLM642-1290 T1110G; [2])	Kd (BLM642-1290 S1121A; [2])	Kd (BLM642-1290 K1125A; [2])	Kd [1, 2]
GCCTCGCTGCCGTCGCCA (ssDNA) [F18 ssDNA (18 nt)]	29.7 ± 3.6 nM	27.1 ± 3.7 nM	21.3 ± 2.9 nM	17.2 ± 1.6 nM				
F18/F18 bis dsDNA (18 bp) (dsDNA) DNA 1: GCCTCGCTGCCGTCGCCA DNA 2: TGGCGACGGCAGCGAGGC					78.2 ± 7.2 nM	14.9 ± 1.7 nM	28.6 ± 2.6 nM	4.6 ± 0.5 nM
